Results reported in the supplement of paper PMC5998384.

Tests used:
[1] = test system: HeLa Kyoto; test: solubility in G1/S (NP-40 vs SDS abundance) (log2 ratio); higher = more soluble; conditions: cell cycle stage: G1/S
[2] = test system: HeLa Kyoto; test: thermal stability score vs G1/S (z-score of summed log2 fold changes over temperatures); higher = more thermally stable than in G1/S
[3] = test system: HeLa Kyoto; test: melting temperature (median over replicates), in situ; higher = more thermally stable
[4] = test system: HeLa Kyoto; test: solubility change mitosis vs G1/S (difference of NP-40 vs SDS log2 ratios) (log2 ratio difference); higher = more soluble in mitosis
[5] = cell cycle stage: early G1 (4.5 h after nocodazole release)
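For melting temperature (median over replicates), in situ in this document: HeLa Kyoto cells synchronized by double thymidine or nocodazole block, proteins quantified by TMT10plex mass spectrometry, three independent biological replicates.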
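For solubility change mitosis vs G1/S (difference of NP-40 vs SDS log2 ratios) in this document: synchronized HeLa Kyoto cells (double thymidine block for G1/S, nocodazole release for mitosis), protein amounts in NP-40 versus SDS lysates quantified by mass spectrometry, three biological replicates.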
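For solubility in G1/S (NP-40 vs SDS abundance) in this document: HeLa Kyoto cells arrested at G1/S by double thymidine block, proteins quantified by TMT10plex mass spectrometry in mild NP-40 versus SDS extracts, three biological replicates.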
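For thermal stability score vs G1/S (z-score of summed log2 fold changes over temperatures) in this document: synchronized HeLa Kyoto cells, proteins quantified by TMT10plex mass spectrometry, three biological replicates, mitosis taken 0.5 h after nocodazole release, G1/S directly after double thymidine block.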

Row | Sequence | solubility in G1/S (log2) [1] | thermal stability score [2, 5] | thermal stability score ([2]; cell cycle stage: mitosis) | melting temperature ([3]; cell cycle stage: G1/S) [°C] | melting temperature ([3]; cell cycle stage: mitosis) [°C] | solubility change mitosis (log2) [4]
1 | MASKEMFEDTVEERVINEEYKIWKKNTPFLYDLVMTHALQWPSLTVQWLPEVTKPEGKDYALHWLVLGTHTSDEQNHLVVARVHIPNDDAQFDASHCDSDKGEFGGFGSVTGKIECEIKINHEGEVNRARYMPQNPHIIATKTPSSDVLVFDYTKHPAKPDPSGECNPDLRLRGHQKEGYGLSWNSNLSGHLLSASDDHTVCLWDINAGPKEGKIVDAKAIFTGHSAVVEDVAWHLLHESLFGSVADDQKLMIWDTRSNTTSKPSHLVDAHTAEVNCLSFNPYSEFILATGSADKTVALWDLRNLKLKLHTFESHKDEIFQVHWSPHNETILASSGTDRRLNVWDLSKIGEEQSAEDAEDGPPELLFIHGGHTAKISDFSWNPNEPWVICSVSEDNIMQIWQMAENIYNDEESDVTTSELEGQGS [RBBP7] | 0.0292 | -0.845 | -1.83 | 53 | 53.3 | -0.157
2 | MASKGAGMSFSRKSYRLTSDAEKSRVTGIVQEKLLNDYLNRIFSSSEHAPPAATSRKPLNFQNLPEHLDQLLQVDNEEEESQGQVEGRLGPSTVVLDHTGGFEGLLLVDDDLLGVIGHSNFGTIRSTTCVYKGKWLYEVLISSQGLMQIGWCTISCRFNQEEGVGDTHNSYAYDGNRVRKWNVTTTNYGKAWAAGDIVSCLIDLDDGTLSFCLNGVSLGTAFENLSRGLGMAYFPAISLSFKESVAFNFGSRPLRYPVAGYRPLQDPPSADLVRAQRLLGCFRAVLSVELDPVEGRLLDKESSKWRLRGQPTVLLTLAHIFHHFAPLLRKVYLVEAVLMSFLLGIVEKGTPTQAQSVVHQVLDLLWLFMEDYEVQDCLKQLMMSLLRLYRFSPIVPDLGLQIHYLRLTIAILRHEKSRKFLLSNVLFDVLRSVVFFYIKSPLRVEEAGLQELIPTTWWPHCSSREGKESTEMKEETAEERLRRRAYERGCQRLRKRIEVVEELQVQILKLLLDNKDDNGGEASRYIFLTKFRKFLQENASGRGNMPMLCPPEYMVCFLHRLISALRYYWDEYKASNPHASFSEEAYIPPQVFYNGKVDYFDLQRLGGLLSHLRKTLKDDLASKANIVIDPLELQSTAMDDLDEDEEPAPAMAQRPMQALAVGGPLPLPRPGWLSSPTLGRANRFLSTAAVSLMTPRRPLSTSEKVKVRTLSVEQRTREDIEGSHWNEGLLLGRPPEEPEQPLTENSLLEVLDGAVMMYNLSVHQQLGKMVGVSDDVNEYAMALRDTEDKLRRCPKRRKDILAELTKSQKVFSEKLDHLSRRLAWVHATVYSQEKMLDIYWLLRVCLRTIEHGDRTGSLFAFMPEFYLSVAINSYSALKNYFGPVHSMEELPGYEETLTRLAAILAKHFADARIVGTDIRDSLMQALASYVCYPHSLRAVERIPEEQRIAMVRNLLAPYEQRPWAQTNWILVRLWRGCGFGYRYTRLPHLLKTKLEDANLPSLQKPCPSTLLQQHMADLLQQGPDVAPSFLNSVLNQLNWAFSEFIGMIQEIQQAAERLERNFVDSRQLKVCATCFDLSVSLLRVLEMTITLVPEIFLDWTRPTSEMLLRRLAQLLNQVLNRVTAERNLFDRVVTLRLPGLESVDHYPILVAVTGILVQLLVRGPASEREQATSVLLADPCFQLRSICYLLGQPEPPAPGTALPAPDRKRFSLQSYADYISADELAQVEQMLAHLTSASAQAAAASLPTSEEDLCPICYAHPISAVFQPCGHKSCKACINQHLMNNKDCFFCKTTIVSVEDWEKGANTSTTSSAA [RNF123] | -0.366 | -0.758 | 0.258 | 50.4 | 50.3 | 0.0631
3 | MASLDDPGEVREGFLCPLCLKDLQSFYQLHSHYEEEHSGEDRDVKGQIKSLVQKAKKAKDRLLKREGDDRAESGTQGYESFSYGGVDPYMWEPQELGAVRSHLSDFKKHRAARIDHYVVEVNKLIIRLEKLTAFDRTNTESAKIRAIEKSVVPWVNDQDVPFCPDCGNKFSIRNRRHHCRLCGSIMCKKCMELISLPLANKLTSASKESLSTHTSPSQSPNSVHGSRRGSISSMSSVSSVLDEKDDDRIRCCTHCKDTLLKREQQIDEKEHTPDIVKLYEKLRLCMEKVDQKAPEYIRMAASLNAGETTYSLEHASDLRVEVQKVYELIDALSKKILTLGLNQDPPPHPSNLRLQRMIRYSATLFVQEKLLGLMSLPTKEQFEELKKKRKEEMERKRAVERQAALESQRRLEERQSGLASRAANGEVASLRRGPAPLRKAEGWLPLSGGQGQSEDSDPLLQQIHNITSFIRQAKAAGRMDEVRTLQENLRQLQDEYDQQQTEKAIELSRRQAEEEDLQREQLQMLRERELEREREQFRVASLHTRTRSLDFREIGPFQLEPSREPRTHLAYALDLGSSPVPSSTAPKTPSLSSTQPTRVWSGPPAVGQERLPQSSMPQQHEGPSLNPFDEEDLSSPMEEATTGPPAAGVSLDPSARILKEYNPFEEEDEEEEAVAGNPFIQPDSPAPNPFSEEDEHPQQRLSSPLVPGNPFEEPTCINPFEMDSDSGPEAEEPIEEELLLQQIDNIKAYIFDAKQCGRLDEVEVLTENLRELKHTLAKQKGGTD [RBSN] | 0.33 | 0.55 | 1.28 | 50.7 | 50.4 | -0.00797
4 | MASNMDREMILADFQACTGIENIDEAITLLEQNNWDLVAAINGVIPQENGILQSEYGGETIPGPAFNPASHPASAPTSSSSSAFRPVMPSRQIVERQPRMLDFRVEYRDRNVDVVLEDTCTVGEIKQILENELQIPVSKMLLKGWKTGDVEDSTVLKSLHLPKNNSLYVLTPDLPPPSSSSHAGALQESLNQNFMLIITHREVQREYNLNFSGSSTIQEVKRNVYDLTSIPVRHQLWEGWPTSATDDSMCLAESGLSYPCHRLTVGRRSSPAQTREQSEEQITDVHMVSDSDGDDFEDATEFGVDDGEVFGMASSALRKSPMMPENAENEGDALLQFTAEFSSRYGDCHPVFFIGSLEAAFQEAFYVKARDRKLLAIYLHHDESVLTNVFCSQMLCAESIVSYLSQNFITWAWDLTKDSNRARFLTMCNRHFGSVVAQTIRTQKTDQFPLFLIIMGKRSSNEVLNVIQGNTTVDELMMRLMAAMEIFTAQQQEDIKDEDEREARENVKREQDEAYRLSLEADRAKREAHEREMAEQFRLEQIRKEQEEEREAIRLSLEQALPPEPKEENAEPVSKLRIRTPSGEFLERRFLASNKLQIVFDFVASKGFPWDEYKLLSTFPRRDVTQLDPNKSLLEVKLFPQETLFLEAKE [FAF1] | 0.0926 | 0.291 | 1.77 | 53.6 | 53.5 | -0.147
5 | MASPGCLLCVLGLLLCGAASLELSRPHGDTAKKPIIGILMQKCRNKVMKNYGRYYIAASYVKYLESAGARVVPVRLDLTEKDYEILFKSINGILFPGGSVDLRRSDYAKVAKIFYNLSIQSFDDGDYFPVWGTCLGFEELSLLISGECLLTATDTVDVAMPLNFTGGQLHSRMFQNFPTELLLSLAVEPLTANFHKWSLSVKNFTMNEKLKKFFNVLTTNTDGKIEFISTMEGYKYPVYGVQWHPEKAPYEWKNLDGISHAPNAVKTAFYLAEFFVNEARKNNHHFKSESEEEKALIYQFSPIYTGNISSFQQCYIFD [GGH] | 0.326 | 0.878 | -0.77 | 60.5 | 60 | -0.0381
6 | MASPQLCRALVSAQWVAEALRAPRAGQPLQLLDASWYLPKLGRDARREFEERHIPGAAFFDIDQCSDRTSPYDHMLPGAEHFAEYAGRLGVGAATHVVIYDASDQGLYSAPRVWWMFRAFGHHAVSLLDGGLRHWLRQNLPLSSGKSQPAPAEFRAQLDPAFIKTYEDIKENLESRRFQVVDSRATGRFRGTEPEPRDGIEPGHIPGTVNIPFTDFLSQEGLEKSPEEIRHLFQEKKVDLSKPLVATCGSGVTACHVALGAYLCGKPDVPIYDGSWVEWYMRARPEDVISEGRGKTH [MPST] | 0.45 | 3.35 | 0.97 | 50.1 | 50.5 | -0.0783
7 | MASQLQNRLRSALALVTGAGSGIGRAVSVRLAGEGATVAACDLDRAAAQETVRLLGGPGSKEGPPRGNHAAFQADVSEARAARCLLEQVQACFSRPPSVVVSCAGITQDEFLLHMSEDDWDKVIAVNLKGTFLVTQAAAQALVSNGCRGSIINISSIVGKVGNVGQTNYAASKAGVIGLTQTAARELGRHGIRCNSVLPGFIATPMTQKVPQKVVDKITEMIPMGHLGDPEDVADVVAFLASEDSGYITGTSVEVTGGLFM [HSD17B8] | 0.368 | -0.337 | -1.5 | 55.3 | 56.3 | 0.119
8 | MASRCWRWWGWSAWPRTRLPPAGSTPSFCHHFSTQEKTPQICVVGSGPAGFYTAQHLLKHPQAHVDIYEKQPVPFGLVRFGVAPDHPEVKNVINTFTQTAHSGRCAFWGNVEVGRDVTVPELREAYHAVVLSYGAEDHRALEIPGEELPGVCSARAFVGWYNGLPENQELEPDLSCDTAVILGQGNVALDVARILLTPPEHLERTDITKAALGVLRQSRVKTVWLVGRRGPLQVAFTIKELREMIQLPGARPILDPVDFLGLQDKIKEVPRPRKRLTELLLRTATEKPGPAEAARQASASRAWGLRFFRSPQQVLPSPDGRRAAGVRLAVTRLEGVDEATRAVPTGDMEDLPCGLVLSSIGYKSRPVDPSVPFDSKLGVIPNVEGRVMDVPGLYCSGWVKRGPTGVIATTMTDSFLTGQMLLQDLKAGLLPSGPRPGYAAIQALLSSRGVRPVSFSDWEKLDAEEVARGQGTGKPREKLVDPQEMLRLLGH [FDXR] | 0.349 | 0.0282 | 0.706 | 51.7 | 51.8 | -0.0461
9 | MASRGRRPEHGGPPELFYDETEARKYVRNSRMIDIQTRMAGRALELLYLPENKPCYLLDIGCGTGLSGSYLSDEGHYWVGLDISPAMLDEAVDREIEGDLLLGDMGQGIPFKPGTFDGCISISAVQWLCNANKKSENPAKRLYCFFASLFSVLVRGSRAVLQLYPENSEQLELITTQATKAGFSGGMVVDYPNSAKAKKFYLCLFSGPSTFIPEGLSENQDEVEPRESVFTNERFPLRMSRRGMVRKSRAWVLEKKERHRRQGREVRPDTQYTGRKRKPRF [WBSCR22] | -0.361 | 1.09 | 0.578 | 52.9 | 52.9 | 0.0973
10 | MASSAQSGGSSGGPAVPTVQRGIIKMVLSGCAIIVRGQPRGGPPPERQINLSNIRAGNLARRAAATQPDAKDTPDEPWAFPAREFLRKKLIGKEVCFTIENKTPQGREYGMIYLGKDTNGENIAESLVAEGLATRREGMRANNPEQNRLSECEEQAKAAKKGMWSEGNGSHTIRDLKYTIENPRHFVDSHHQKPVNAIIEHVRDGSVVRALLLPDYYLVTVMLSGIKCPTFRREADGSETPEPFAAEAKFFTESRLLQRDVQIILESCHNQNILGTILHPNGNITELLLKEGFARCVDWSIAVYTRGAEKLRAAERFAKERRLRIWRDYVAPTANLDQKDKQFVAKVMQVLNADAIVVKLNSGDYKTIHLSSIRPPRLEGENTQDKNKKLRPLYDIPYMFEAREFLRKKLIGKKVNVTVDYIRPASPATETVPAFSERTCATVTIGGINIAEALVSKGLATVIRYRQDDDQRSSHYDELLAAEARAIKNGKGLHSKKEVPIHRVADISGDTQKAKQFLPFLQRAGRSEAVVEYVFSGSRLKLYLPKETCLITFLLAGIECPRGARNLPGLVQEGEPFSEEATLFTKELVLQREVEVEVESMDKAGNFIGWLHIDGANLSVLLVEHALSKVHFTAERSSYYKSLLSAEEAAKQKKEKVWAHYEEQPVEEVMPVLEEKERSASYKPVFVTEITDDLHFYVQDVETGTQLEKLMENMRNDIASHPPVEGSYAPRRGEFCIAKFVDGEWYRARVEKVESPAKIHVFYIDYGNREVLPSTRLGTLSPAFSTRVLPAQATEYAFAFIQVPQDDDARTDAVDSVVRDIQNTQCLLNVEHLSAGCPHVTLQFADSKGDVGLGLVKEGLVMVEVRKEKQFQKVITEYLNAQESAKSARLNLWRYGDFRADDADEFGYSR [SND1] | -0.0826 | 0.34 | 3.69 | 47.9 | 48.1 | 0.0116
